The labels stand for the following.
T1: MdASG1-GST (Malus domestica (apple; library from …, UniProt A0A498KLW2 21-457)
T1 sequence: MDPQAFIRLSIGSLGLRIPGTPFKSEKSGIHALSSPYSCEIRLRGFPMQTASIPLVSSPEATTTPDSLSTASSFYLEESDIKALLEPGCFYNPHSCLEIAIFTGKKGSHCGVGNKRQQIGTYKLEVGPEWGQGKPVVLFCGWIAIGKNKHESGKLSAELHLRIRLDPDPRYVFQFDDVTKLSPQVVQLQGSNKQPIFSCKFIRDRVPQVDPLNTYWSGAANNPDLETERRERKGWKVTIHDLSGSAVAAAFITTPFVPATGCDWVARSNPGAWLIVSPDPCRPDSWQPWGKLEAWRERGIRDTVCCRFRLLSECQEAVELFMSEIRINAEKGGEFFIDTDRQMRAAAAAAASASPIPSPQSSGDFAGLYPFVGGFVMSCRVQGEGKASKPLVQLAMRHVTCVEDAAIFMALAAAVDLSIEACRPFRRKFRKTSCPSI

B1: p4MdLOX1a-2-M6 (dsDNA)
DNA 1: AATTACGCAGGGATTACATCTATGTCATCTTAAAGCCAGCTAACTTTCGGGATAA
DNA 2: TTATCCCGAAAGTTAGCTGGCTTTAAGATGACATAGATGTAATCCCTGCGTAATT
B2: p4MdLOX1a-2 (dsDNA)
DNA 1: AATTACGCAGGGATTACATCTATGTCATCTTAAAGCCAGCTAACTTTCGGGATAAACGATTTTGTAC
DNA 2: GTACAAAATCGTTTATCCCGAAAGTTAGCTGGCTTTAAGATGACATAGATGTAATCCCTGCGTAATT
B3: Mutant-M1 (dsDNA)
DNA 1: GATTACATCTATGTCATCTTAAAGCCAGCTAACTTTCGGGATAAATTACCTTATAC
DNA 2: GTATAAGGTAATTTATCCCGAAAGTTAGCTGGCTTTAAGATGACATAGATGTAATC

This note sets out measurements from article PMC11464680, “ABIOTIC STRESS GENE 1 mediates aroma volatiles accumulation by activating MdLOX1a in apple”.

The target of this data set is T1, MdASG1-GST. As to the kind of experiment: EMSA; LightShift Chemiluminescent EMSA kit binding buffer (composition, salt and pH not stated), 24 °C, 15 min. Particulars: protein: recombinant; tags: GST (pGEX-4T, N-terminal); label: biotin; blunt. For orientation: Mobility shift assays separate free from complexed probe on a gel.
Take B1: the binding result is “no binding”.

For B2, the binding result is on record as “binds”.

As to B3, the binding result was “no binding”.
